Reference: the Human Domainome abundance scans (Beltran et al. 2025)
± gives the uncertainty stated by the source.

B1: Retinoic acid receptor RXR-alpha, residues 132 to 208; numbered along this chain, P19793 (parent)
chain: KHICAICGDRSSGKHYGVYSCEGCKGFFKRTVRKDLTYTCRDNKDCLIDKRQRNRCQYCRYQKCLAMGMKREAVQEE

Variants of: B1
Assay: abundance fitness (aPCA) (normalised: wild type 0, dead -1); higher = more abundant; growth selection in yeast, the domain comes from the species named
Details: Homo sapiens

| Variant | abundance fitness |
| --- | --- |
| Y58K | 0.024 ± 0.05 |
| Y58R | -0.032 ± 0.033 |
| Y58P | -0.294 ± 0.065 |
| Y58A | -0.007 ± 0.035 |
| G68N | -0.02 ± 0.033 |
| G68K | -0.079 ± 0.056 |
| G68V | -0.645 ± 0.057 |
| G68C | -0.136 ± 0.041 |
| G68Q | -0.054 ± 0.047 |
| F28C | -0.753 ± 0.14 |
| F28P | -0.906 ± 0.14 |
| F28A | -0.49 ± 0.047 |
| F28I | -0.289 ± 0.078 |
| F28S | -0.824 ± 0.087 |
| F28H | -0.495 ± 0.12 |
| K50C | -0.153 ± 0.066 |
| K50V | 0.052 ± 0.04 |
| K50P | -0.029 ± 0.051 |
| K50A | 0.037 ± 0.042 |
| K50N | 0.124 ± 0.074 |
| R53F | -0.044 ± 0.034 |

| Variant | abundance fitness |
| --- | --- |
| R53Q | -0.028 ± 0.043 |
| R53I | 0.014 ± 0.035 |
| R53H | 0.015 ± 0.036 |
| R51W | -0.038 ± 0.04 |
| R51H | -0.052 ± 0.08 |
| R51T | 0.022 ± 0.058 |
| R51S | 0.017 ± 0.049 |
| R51Q | -0.015 ± 0.05 |
| R51V | -0.035 ± 0.033 |
| S12E | 0.101 ± 0.049 |
| S12A | 0.044 ± 0.041 |
| S12I | -0.196 ± 0.12 |
| S12F | -0.112 ± 0.082 |
| S12P | 0.062 ± 0.061 |
| S12V | 0.018 ± 0.036 |
| S12C | -0.657 ± 0.1 |
| C40I | -0.697 ± 0.15 |
| C40M | -0.621 ± 0.088 |
| C40Q | -0.707 ± 0.1 |
| K44A | 0.001 ± 0.038 |
| K44V | -0.035 ± 0.031 |

| Variant | abundance fitness |
| --- | --- |
| K44T | 0.057 ± 0.046 |
| S20D | -0.276 ± 0.036 |
| S20N | 0.031 ± 0.032 |
| S20G | 0.065 ± 0.021 |
| S20V | 0.035 ± 0.024 |
| E22P | -0.037 ± 0.048 |
| E22M | -0.136 ± 0.05 |
| E22A | -0.048 ± 0.033 |
| E22K | 0.015 ± 0.045 |
| E22V | -0.053 ± 0.033 |
| E22W | -0.007 ± 0.035 |
| E22G | 0.031 ± 0.028 |
| Y19M | -0.015 ± 0.036 |
| Y19P | 0.006 ± 0.037 |
| Y19C | -0.116 ± 0.041 |
| Y19I | -0.107 ± 0.041 |
| Y19L | -0.04 ± 0.029 |
| Y19K | -0.032 ± 0.035 |
| L36V | 0.009 ± 0.032 |
| L36Q | 0.005 ± 0.051 |
| L36P | -0.067 ± 0.059 |

| Variant | abundance fitness |
| --- | --- |
| L36N | -0.024 ± 0.075 |
| L36F | 0.046 ± 0.057 |
| L36T | -0.028 ± 0.049 |
| L36M | -0.061 ± 0.043 |
| L36R | 0.008 ± 0.03 |
| L36D | 0.053 ± 0.046 |
| L36H | 0.014 ± 0.06 |
| I3L | 0.009 ± 0.029 |
| I3C | 0.022 ± 0.037 |
| I3D | -0.059 ± 0.035 |
| C24R | -0.958 ± 0.048 |
| C24Y | -1.09 ± 0.12 |
| C24P | -0.904 ± 0.082 |
| C24A | -0.875 ± 0.051 |
| C24H | -0.971 ± 0.095 |
| C24K | -1.15 ± 0.11 |
| R33Y | -0.158 ± 0.042 |
| R33D | -0.005 ± 0.04 |
| R30S | -0.158 ± 0.037 |
| R30F | -0.362 ± 0.11 |
